Assay [1] concerns the target serpins of normal human plasma. Description: cell-based or functional assay.
For the next assay, the target named is serpins of rabbit plasma. Description: cell-based or functional assay.

Where a chain is given by its changes, count along the chain named. Names may count otherwise.

B1: wild-type human activated protein C, P04070 43-197; P04070 212-461 (enzyme)
light: ANSFLEELRHSSLERECIEEICDFEEAKEIFQNVDDTLAFWSKHVDGDQCLVLPLEHPCASLCCGHGTCIDGIGSFSCDCRSGWEGRFCQREVSFLNCSLDNGGCTHYCLEEVGWRRCSCAPGYKLGDDLLQCHPAVKFPCGRPWKRMEKKRSHL
heavy: LIDGKMTRRGDSPWQVVLLDSKKKLACGAVLIHPSWVLTAAHCMDESKKLLVRLGEYDLRRWEKWELDLDIKEVFVHPNYSKSTTDNDIALLHLAQPATLSQTIVPICLPDSGLAERELNQAGQETLVTGWGYHSSREKEAKRNRTFVLNFIKIPVVPHNECSEVMSNMVSENMLCAGILGDRQDACEGDSGGPMVASFHGTWFLVGLVSWGEGCGLLHNYGVYTKVSRYLDWIHGHIRDKEAPQKSWAP
modifications: here or on the partner: Asn-linked carbohydrate at three sites; vitamin K-dependent gamma-carboxylation of nine glutamic acid residues within the amino-terminal 45 residues (gla-domain); one erythro-beta-hydroxy-Asp; Asn-linked carbohydrate
In assay [1], B1 had an Inactivation in Plasma (t1/2 Relative to wt), Human (x (relative to wt)) of 1. This molecule registered an Inactivation in Plasma (t1/2 Relative to wt), Rabbit (x (relative to wt)) with serpins of rabbit plasma of 1.

B2: activated human protein C derivative H10Q:S11G:Q32E:N33D:L194S, P04070 43-197; P04070 212-461 (enzyme)
light: B1 light with H10Q, S11G, Q32E, N33D
heavy: B1 heavy with L25S
modifications: here or on the partner: Asn-linked oligosaccharides; gamma-carboxy-glutamates in the gla-domain; one erythro-beta-hydroxy-Asp; Asn-linked oligosaccharide
For the molecule B2, in assay [1], the Inactivation in Plasma (t1/2 Relative to wt), Human (x (relative to wt)) was 5.9. In the assay with serpins of rabbit plasma, this molecule showed an Inactivation in Plasma (t1/2 Relative to wt), Rabbit (x (relative to wt)) of 8.5.

B3: activated human protein C derivative H10Q:S11G:Q32E:N33D:L194S:T254S, P04070 43-197; P04070 212-461 (enzyme)
light: B1 light with H10Q, S11G, Q32E, N33D
heavy: B1 heavy with L25S, T85S
modifications: here or on the partner: Asn-linked oligosaccharides; gamma-carboxy-glutamates in the gla-domain; one erythro-beta-hydroxy-Asp; Asn-linked oligosaccharide
The molecule B3 gave an Inactivation in Plasma (t1/2 Relative to wt), Human (x (relative to wt)) in assay [1] of 8.5. Further, the Inactivation in Plasma (t1/2 Relative to wt), Rabbit (x (relative to wt)) with serpins of rabbit plasma was more than 20.

B4: activated human protein C derivative S11G:Q32E:N33D:L194S:T254S, P04070 43-197; P04070 212-461 (enzyme)
light: B1 light with S11G, Q32E, N33D
heavy: B1 heavy with L25S, T85S
modifications: here or on the partner: Asn-linked oligosaccharides; gamma-carboxy-glutamates in the gla-domain; one erythro-beta-hydroxy-Asp; Asn-linked oligosaccharide
As for B4, the Inactivation in Plasma (t1/2 Relative to wt), Human (x (relative to wt)) in assay [1] is 13. In the assay with serpins of rabbit plasma, this molecule had an Inactivation in Plasma (t1/2 Relative to wt), Rabbit (x (relative to wt)) of more than 20.

B5: activated human protein C derivative S11G:Q32E:N33D:L194S, P04070 43-197; P04070 212-461 (enzyme)
light: B1 light with S11G, Q32E, N33D
heavy: B1 heavy with L25S
modifications: here or on the partner: Asn-linked oligosaccharides; gamma-carboxy-glutamates in the gla-domain; one erythro-beta-hydroxy-Asp; Asn-linked oligosaccharide
For B5, in assay [1], the Inactivation in Plasma (t1/2 Relative to wt), Human (x (relative to wt)) is 5.8. This molecule yielded an Inactivation in Plasma (t1/2 Relative to wt), Rabbit (x (relative to wt)) in the assay with serpins of rabbit plasma of 8.5.

Values taken from US20030207435A1.
